Paper PMC2909587

Molecular target: taxol-stabilised pig-brain MTs (pig) (UniProt P02550)
Assay: co-sedimentation

Kd: 700 nM | stoichiometry N: 6 CENP-Q:MT
Substance: CENP-Q (from UniProt Q7L2Z9 1-268) (natural protein)
